What all share (test): radiometric HPLC ligase assay, Michaelis-Menten fit
Type in all cases: biochemical, Verrucomicrobium spinosum

Substrate in data set [1]: CC(=O)N[C@H]1[C@@H](OP(=O)(O)OP(=O)(O)OC[C@H]2O[C@@H](n3ccc(=O)[nH]c3=O)[C@H](O)[C@@H]2O)O[C@H](CO)[C@@H](O)[C@@H]1O[C@H](C)C(=O)N[C@@H](C)C(=O)N[C@H](CCC(=O)O)C(=O)O
The note with it: 100 mM Tris-HCl pH 9.6, 30 mM MgCl2, 37°C, other substrates fixed (standard 5 mM ATP, 150 µM meso-A2pm), labelled compound (14C in D-Glu).

Substrate in data set [2]: N[C@H](CCC[C@H](N)C(=O)O)C(=O)O
As to conditions: 100 mM Tris-HCl pH 9.6, 30 mM MgCl2, 37°C, other substrates fixed (standard 5 mM ATP, 150 µM UDP-MurNAc-L-Ala-D-[14C]Glu).

Substrate in data set [3]: Nc1ncnc2c1ncn2[C@@H]1O[C@H](COP(=O)(O)OP(=O)(O)OP(=O)(O)O)[C@@H](O)[C@H]1O
As to conditions: 100 mM Tris-HCl pH 9.6, 30 mM MgCl2, 37°C, other substrates fixed (standard 150 µM UDP-MurNAc-L-Ala-D-[14C]Glu, 150 µM meso-A2pm).

B1: MurEVs (Verrucomicrobium spinosum) (protein)
chain: MTILRDLIEGLDKPVISGGLDVEVAGLAYDSRLVKPGFVFFALRGVKSDGHDFIPKALAEGAVAIVAETAPPEDCSVTWLHVKNARVALAEMAAAYKGHPARSMAVGGVTGTNGKTTTAFLLHHLLNHAHRRCGLLGTVVYDVGGDLKPATHTTPESLELQGLLSEMRDRGCVAVAMEVSSHAIDQHRTHGVPFAAAVFTNLSQDHLDYHGTMEEYFKAKSKLFSSTAASRSGKLVINVDDIWGRRLVDAHKEHPGLVTYGLGVAADYRAVNPRYDLTGTSFELEHKGRSLLVRIPQIGQFNVYNSLAALAAAHGMGCNLRDTVKAMQSSPQIPGRMERVTPDNHSFHVFVDYAHTPDGLVNALSTARALRPERIITVFGCGGDRDRLKRPLMARAVEEHSDISILTSDNPRTEDPQAIMDDARKGFTRSAHALIADRKEAIHTAIKGAREGDIVVIAGKGHEPYQDVQGVKHPFDDRRVARQLVDIEIRIKGEKRLEARQRRDDRQ
The Km is the substrate concentration at which the rate is half of its maximum. For the protein B1, the figures for the Km in data set [1], in data set [2] and in data set [3] were 24 ± 6 µM, 17 ± 3 µM and 290 ± 70 µM, respectively.
